The experiment deals with surface integrins on A375.S2 cells (human melanoma cells). Kind of experiment: flow cytometry on A375.S2 cells, CNTO95 10 ug/ml, no peptide (cells only: 3.36).

The substance CNTO95 (antibody) showed a Mean Channel Fluorescence of 89.7.

The values are drawn from patent publication US20050084491A1.
